Test results from PMC10674851, “Discovery and Characterization of a Dual-Function Peptide Derived from Bitter Gourd Seed Protein Using Two Orthogonal Bioassay-Guided Fractionations Coupled with In Silico Analysis” (Pharmaceuticals, 2023).
No end group written: not given here.

How the values were obtained:
[1] = in vivo, cited from earlier work
Excerpt: Simultaneously, ACE2, a homologue of ACE, counteracts the vasoconstrictor effects by converting Ang-II into Ang 1–7 (a vasodilator). ACE2 also transforms Ang-I into Ang 1–9, and ACE hydrolyzes Ang 1–9 into Ang 1–7, resulting in a vasodilation effect. However, Ang 1–7 has a short half-life of only half an hour in the human body, and i ...

[2] = biological target: T1, recombinant human dipeptidyl peptidase-IV (DPP4) (Homo sapiens, UniProt P27487); assay: DPP4 inhibitory (DPP4I) activity assay, GP-pNA substrate, absorbance 405 nm; assay type: biochemical; settings: seven logarithmic concentrations, non-linear interpolation; mean ± SD, triplicate
T1 construct: purchased Sigma-Aldrich Co. (Saint Louis, MO, USA)
T1 sequence (P27487 whole entry): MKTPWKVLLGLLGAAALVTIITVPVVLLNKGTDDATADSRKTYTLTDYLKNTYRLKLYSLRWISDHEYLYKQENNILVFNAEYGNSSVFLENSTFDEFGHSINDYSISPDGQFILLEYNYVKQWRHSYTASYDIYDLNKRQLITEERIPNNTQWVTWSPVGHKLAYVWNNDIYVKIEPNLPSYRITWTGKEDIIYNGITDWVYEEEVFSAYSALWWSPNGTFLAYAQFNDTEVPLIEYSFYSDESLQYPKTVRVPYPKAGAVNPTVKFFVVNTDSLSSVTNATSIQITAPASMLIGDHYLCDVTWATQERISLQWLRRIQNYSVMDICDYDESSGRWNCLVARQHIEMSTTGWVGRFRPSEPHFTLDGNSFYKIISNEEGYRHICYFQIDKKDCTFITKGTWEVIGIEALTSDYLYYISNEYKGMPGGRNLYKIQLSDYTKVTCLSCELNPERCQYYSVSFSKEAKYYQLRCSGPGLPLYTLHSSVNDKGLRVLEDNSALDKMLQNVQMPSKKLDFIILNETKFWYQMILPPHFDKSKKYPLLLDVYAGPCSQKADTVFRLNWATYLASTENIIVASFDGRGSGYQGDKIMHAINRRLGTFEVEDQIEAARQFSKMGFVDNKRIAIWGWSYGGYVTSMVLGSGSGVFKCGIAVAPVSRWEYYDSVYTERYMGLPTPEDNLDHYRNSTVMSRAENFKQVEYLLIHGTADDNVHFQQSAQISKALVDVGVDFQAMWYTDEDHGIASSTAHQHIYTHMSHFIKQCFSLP
Protocol: The DPP4 inhibitory activity was determined as described by Nong, N. T. P. et al., with a few modifications. The testing samples, GP-pNA, linagliptin, and DPP4 were dissolved in 0.1 M Tris-HCl buffer, pH 8.0. Briefly, 25 µL of the testing sample was premixed with 25 µL of 1.6 mM GP-pNA and incubated at 37 °C for 10 min. Then, 50 µL of DPP4 (0.5 U/µL) was added. The reaction was continued for 60 min at 37 °C. The enzymatic reaction was quenched by adding 100 µL of 1 M sodium acetate, pH 4.0. The absorbance of pNA, as a product of the DPP4 and GP-pNA reactions, was monitored using a PowerWave XS (Biotek®, Winooski, VT, USA) 96-well microplate reader at a wavelength of 405nm. DPP4 inhibitory activity was calculated by the following equation:(3) DPP4 inhibitory activity %=1−pNAinhibitor/pNA no inhibitor×100%,
The pNA(inhibitor) and pNA(no inhibitor) were the absorbances of the pNA (λ = 405 nm) acquired in the presence and absence of an inhibitor, respectively. The half-maximal inhibitory concentration of DPP4 inhibition (DPP4I IC50) value was calculated using a non-linear interpolation for at least six logarithmic concentrations of the inhibitor.

[3] = biological target: T2, angiotensin-I-converting enzyme (ACE) from rabbit lungs (Oryctolagus cuniculus, UniProt P12822); assay: ACE inhibitory (ACEI) activity assay, HHL substrate, hippuric acid by RP-HPLC; assay type: biochemical; settings: synthetic AW6, seven logarithmic concentrations, non-linear interpolation; mean ± SD, triplicate
T2 construct: angiotensin-I-converting enzyme (ACE) from rabbit lungs; purchased Sigma-Aldrich Co. (Saint Louis, MO, USA); host or cells: rabbit lung tissue
T2 sequence (P12822 34-1310): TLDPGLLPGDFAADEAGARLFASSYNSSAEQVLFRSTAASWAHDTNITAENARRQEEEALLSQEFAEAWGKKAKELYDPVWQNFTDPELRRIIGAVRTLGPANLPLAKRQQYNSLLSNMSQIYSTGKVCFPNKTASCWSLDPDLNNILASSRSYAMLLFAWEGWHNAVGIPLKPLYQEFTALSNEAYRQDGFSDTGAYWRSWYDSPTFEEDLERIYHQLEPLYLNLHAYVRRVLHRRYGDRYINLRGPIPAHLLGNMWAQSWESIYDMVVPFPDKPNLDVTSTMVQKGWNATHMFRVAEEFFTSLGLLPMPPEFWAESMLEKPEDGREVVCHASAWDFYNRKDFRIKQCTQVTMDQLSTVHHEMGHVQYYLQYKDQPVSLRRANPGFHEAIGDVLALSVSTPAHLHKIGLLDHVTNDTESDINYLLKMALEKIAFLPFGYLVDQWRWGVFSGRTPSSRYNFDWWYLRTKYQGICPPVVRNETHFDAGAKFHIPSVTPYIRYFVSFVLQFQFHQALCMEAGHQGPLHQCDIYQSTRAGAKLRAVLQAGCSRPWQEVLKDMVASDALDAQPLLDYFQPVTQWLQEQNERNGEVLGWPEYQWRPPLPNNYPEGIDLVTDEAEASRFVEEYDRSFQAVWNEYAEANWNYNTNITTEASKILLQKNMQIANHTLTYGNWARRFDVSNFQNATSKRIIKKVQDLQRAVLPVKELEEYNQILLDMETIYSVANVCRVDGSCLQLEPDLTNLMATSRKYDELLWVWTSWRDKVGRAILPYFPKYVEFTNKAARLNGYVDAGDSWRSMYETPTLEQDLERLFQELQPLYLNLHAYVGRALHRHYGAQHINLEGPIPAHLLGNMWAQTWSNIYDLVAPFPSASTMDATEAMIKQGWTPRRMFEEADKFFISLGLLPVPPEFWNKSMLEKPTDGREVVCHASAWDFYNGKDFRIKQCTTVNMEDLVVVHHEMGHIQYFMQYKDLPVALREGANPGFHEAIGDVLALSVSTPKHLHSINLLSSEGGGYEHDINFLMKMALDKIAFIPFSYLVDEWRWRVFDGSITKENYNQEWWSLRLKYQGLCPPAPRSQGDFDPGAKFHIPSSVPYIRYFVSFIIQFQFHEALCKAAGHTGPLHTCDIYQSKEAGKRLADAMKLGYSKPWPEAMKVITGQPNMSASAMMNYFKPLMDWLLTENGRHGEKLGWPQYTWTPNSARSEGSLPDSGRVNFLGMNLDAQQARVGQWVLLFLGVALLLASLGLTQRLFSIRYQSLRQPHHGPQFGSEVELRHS
Protocol: The ACEI activity was studied according to Cushman and Cheung [43], with a few modifications. First, 10 µL of the testing sample was premixed with 30 µL of hippuryl–histidine–leucine (HHL) and incubated at 37 °C for 5 min. Then, 20 µL of ACE (0.05 mU/µL) was added. Afterward, the reaction was held statically at 37 °C for 30 min and continued with shaking at 200 rpm for another 30 min. Then, 60 µL of 1 N hydrogen chloride was used to quench the reaction, and 10 µL of 0.25 µg/µL ferulic acid was mixed for an internal standard. […] The area under the curve of hippuric acid (HA) was observed using UV–Vis RP-HPLC at a wavelength of 228 nm, 1 mL/min steady flow rate, and 15 min of isocratic elution (26% ACN with 0.1% TFA in deionized water). The inhibitory activity of ACE was determined using the following equation:(2) ACE inhibitory activity %=1−HAinhibitor/HAno inhibitor×100%,
The HA(inhibitor) and HA(no inhibitor) were the areas under the curve of the hippuric acid acquired in the presence and absence of an inhibitor. The half-maximal inhibitory concentration of ACE inhibition (ACEI IC50) was calculated using a non-linear interpolation constructed with a minimum of six logarithmic concentrations of the testing sample.

Substance | half-life ([1]; human) | time of peak concentration in plasma [1] | IC50 [2] | IC50 [3]
Ang 1–7: vasodilator formed from Ang-II by ACE2 | half an hour | one hour | – | –
APLVSW [AW6, APLVSW] | – | – | 145 ± 4.4 µM | 9.6 ± 0.3 µM
